Laboratory results reported in doi:10.1101/2021.01.10.425899 (bioRxiv, 2021).

Target: the molecule itself
Test: SEC-MALS

B1: Exo-β-N-acetylmuramidase NamZ of Bacillus subtilis 168, recombinant, C-terminal His6-tag fusion protein (enzyme)
chain: SPDSKNQTAKKPKVQTGIDTLLPDYKKQLKGKRIGLITNPAGVNTSLKSSVDILYENPDIKLTALFGPEHGVRGDAQAGDEVGSYIDEKTGVPVYSLYGKTKKPTPEMLKNVDILMFDIQDVGTRFYTYIYTMAYAMEAAKENGIPFMVLDRPNPQGGNHIEGPILEPEYASFVGLYPIPLKHGMTIGELASLFNKEFSIDADLTVVKMKHWKRKMDFDDTRLPFVLPSPNMPTVESTFVYPATGLIEGTNISEGRGTTKPFELIGAPFIKSTELEETLNSLHLPGVTFRAASFTPTFSKHQGTLCHGVQLYVTDRDKFEAVKTGLSVIKTIHDLYPEDFEFLSTGSFDKLAGNGWIRTKIENGTSVENIINSYEKTLQQFSKTRKKYLIY
stoichiometry N: 2
